Data from the supplement of paper PMC10126150.
± gives the standard deviation of the averaged measurements.

Tested on: ATP
Experiment: switch fluorescence ratio, 500 uM ATP over buffer (Cy3 cluster intensity, sum of 5 cycles each) (fold (ratio)); higher = stronger signal-on switching upon ATP binding; sequences stand for … in TCGTCGGCAGCGTCAGATGTGTATAAGAGACAGTTTTTTTTTTTTTTTTTTTTTTTTT…TC
Conditions: aptamer strand: ATP DNA aptamer (quencher-CACCTGGGGGAGTATTGCGGAGGAAGG + anchor), 100 nM annealed; ATP concentration: 500 uM
Summary of the method: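 Clusters carrying Cy3-labelled switching strands on a modified Illumina MiSeq flow-cell were annealed to 100 nM quencher-labelled ATP aptamer and imaged in selection buffer. They were imaged again after 15 min with 500 uM ATP at 22 °C, over five buffer/ATP cycles with NaOH stripping and re-annealing in between. For each cluster, the fluorescence ratio is the summed Cy3 intensity of the target cycles divided by that of the buffer cycles, averaged per switch-domain sequence. Clusters outside 100-1000 RFU were left out.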
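Note: ATP exposure 15 min at 22 °C before imaging.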

| Sequence | switch fluorescence ratio |
| --- | --- |
| CGTGTCAGGG | 1 ± 0.034 |
| GGTTTTTCTG | 0.992 ± 0.061 |
| TACAGGGAAC | 0.974 ± 0.014 |
| TTCGTGACTT | 1.02 ± 0.025 |
| TCTGGGGGGT | 1.02 ± 0.035 |
| TCAAGTATCA | 1.02 ± 0.02 |
| TTGTTCTAAC | 1.0276 ± 0.00054 |
| TATCTATCTT | 0.994 ± 0.0066 |
| GGACGCATAA | 3.51 ± 1.3 |
| GTGTCTTTGA | 0.986 ± 0.055 |
| AATTTGCCGT | 1.04 ± 0.042 |
| ATAAGTTGGG | 0.968 ± 0.024 |
| TTCATTGGTG | 1.09 ± 0.035 |
| CATCGGTGCG | 1.08 ± 0.19 |
| CAGGCAGGGT | 0.969 ± 0.035 |
| TCACAGGTTT | 1.05 ± 0.017 |
| TTTAAAAA | 1.02 ± 0.044 |
| GATGTGTAGA | 0.999 ± 0.018 |
| AGACGTGTGT | 1.023 ± 0.0088 |
| TGGTAGTTTT | 0.9899 ± 0.0078 |
| TAAAAAGCAT | 1.007 ± 0.0031 |
| GGGTTATTAG | 0.986 ± 0.018 |
| TAAAAGCTAA | 1 ± 0.031 |

| Sequence | switch fluorescence ratio |
| --- | --- |
| AAGGTTACCG | 1.04 ± 0.021 |
| ACACGATGCC | 1 ± 0.043 |
| AGGGCTTTTG | 1 ± 0.063 |
| AATATGGGGG | 1.01 ± 0.025 |
| CGGGGGTCTA | 1.01 ± 0.045 |
| CAATCACAGG | 1.286 ± 0.0086 |
| GATTGACCCT | 1.048 ± 0.0092 |
| AGGAGGAAGG | 1.05 ± 0.086 |
| TTTGAAAGTT | 1.01 ± 0.015 |
| AAGTACGTAG | 1.011 ± 0.0065 |
| TTAAGGCAAA | 1.03 ± 0.019 |
| GATGACTTGC | 1 ± 0.064 |
| CTGGACCGGC | 0.967 ± 0.014 |
| TGATTTTTAC | 1.08 ± 0.092 |
| TCATATAATA | 1.01 ± 0.018 |
| GTGAGCTCAT | 1.01 ± 0.04 |
| GTTGGGGTTT | 1.01 ± 0.031 |
| CGGCGCACAG | 1.31 ± 0.051 |
| CGGTTTGGGA | 0.994 ± 0.035 |
| AGTGTTGTGC | 1.01 ± 0.033 |
| GGGGTTATCT | 1.01 ± 0.026 |
| AAGGGCTGCG | 0.98 ± 0.1 |
| TCTGGGCCAT | 1.29 ± 0.43 |

| Sequence | switch fluorescence ratio |
| --- | --- |
| GATAGGGCGC | 1.02 ± 0.026 |
| CTTCTAGAT | 0.9895 ± 0.0013 |
| TATTTGGGTG | 1.05 ± 0.023 |
| ATGTGGCGTC | 1.01 ± 0.019 |
| AGGGTTCGGA | 1.015 ± 0.0029 |
| GATGGGGCGG | 1.01 ± 0.048 |
| AGGGCAACCG | 1.04 ± 0.028 |
| TTTGGTTTGG | 1.01 ± 0.036 |
| TCTATGAGGG | 1.01 ± 0.023 |
| TGTGTTCCTT | 1 ± 0.018 |
| TCATAAACTT | 1.09 ± 0.058 |
| CAAATGCATA | 1.08 ± 0.017 |
| TGGTATATT | 0.986 ± 0.027 |
| AGAGCGGGGT | 0.998 ± 0.0091 |
| GTAAATATAG | 0.9813 ± 3.7e-05 |
| TGTTTAAAAA | 0.987 ± 0.025 |
| GTTGGGGGTT | 1.01 ± 0.042 |
| CATGTCAAGC | 1.05 ± 0.024 |
| ACATTCGTCC | 1.37 ± 0.063 |
| AGGGGTAAAA | 1 ± 0.014 |
| TGGGACCGTC | 1.052 ± 0.0042 |
| CATTGGAAGA | 1.02 ± 0.015 |
| ATTTGTCCAA | 0.993 ± 0.028 |

| Sequence | switch fluorescence ratio |
| --- | --- |
| ATAATAGATA | 1.01 ± 0.038 |
| AGAAAAAGGC | 1.02 ± 0.065 |
| CGTCCAGCGT | 1.2 ± 0.067 |
| GAGGGGTAGG | 0.977 ± 0.021 |
| CGAAAAAAAT | 1.03 ± 0.035 |
| TGTAAGGGAA | 1.01 ± 0.018 |
| GTTGAGGTCC | 1.02 ± 0.041 |
| AGGAATCCGT | 1.03 ± 0.022 |
| ATAGAGGGTG | 1.05 ± 0.071 |
| GAGCCTTTGT | 1.002 ± 0.006 |
| TTGGTGCCGT | 1.13 ± 0.046 |
| TGCCACAGCA | 1.02 ± 0.025 |
| TGCCGTCGGC | 0.949 ± 0.06 |
| AGTTTTTATA | 1.002 ± 0.0012 |
| ATGGGTTACG | 1 ± 0.033 |
| TTAGGGGTAT | 0.996 ± 0.05 |
| AGGGCTACAG | 1.013 ± 0.0054 |
| TTAGGAATGG | 1.005 ± 0.0015 |
| TTATTCCCAG | 1.016 ± 0.0014 |
| CAACTGCAGC | 1.26 ± 0.049 |
| TCAGAATATT | 0.978 ± 0.023 |
| AGATTCTCGA | 0.998 ± 0.011 |
| AGTAGGCGAG | 0.996 ± 0.042 |

| Sequence | switch fluorescence ratio |
| --- | --- |
| TGGTGTTGGG | 0.983 ± 0.015 |
| TAGATGTTCG | 0.978 ± 0.044 |
| GTGAGGCGGA | 1.07 ± 0.087 |
| AAGAGGTAAA | 0.972 ± 0.025 |
| GGGGGTGAGT | 1.02 ± 0.012 |
| TATTATAGAT | 0.99997 ± 0.00069 |
| GCTCTAGATC | 1.35 ± 0.07 |
| TTAGGGATTG | 1 ± 0.03 |
| GCGACATCGT | 1.027 ± 0.0091 |
| TTTCACAGGA | 1.03 ± 0.025 |
| GGGAATAGT | 0.9898 ± 0.0014 |
| CGGTTTAGGC | 0.93 ± 0.026 |
| TTGACGGTGA | 1.06 ± 0.033 |
| GAAATTTAAA | 0.99756 ± 0.00083 |
| GTGTATTTTG | 0.996 ± 0.014 |
| TTAAGGGGAC | 1.04 ± 0.037 |
| TAGTTCTTAA | 0.984 ± 0.064 |
| TTTGACAGGA | 1.06 ± 0.057 |
| ATGATATGGG | 0.985 ± 0.026 |
| TTTTTAGAAG | 0.985 ± 0.01 |
| CTACATGACT | 1.13 ± 0.025 |
| TCAATGATGG | 1 ± 0.0046 |
| TATGGACGTT | 1.03 ± 0.053 |

| Sequence | switch fluorescence ratio |
| --- | --- |
| ATTGGCTGTT | 0.997 ± 0.052 |
| TGGGGGTAAA | 0.9997 ± 0.0091 |
| GTGAGAATTT | 1.05 ± 0.075 |
| TAAAGGCCGT | 1.01 ± 0.018 |
| AATCTGCCTG | 0.99 ± 0.011 |
| CTCTGGGCGG | 0.988 ± 0.039 |
| TAGAATGGCC | 1.01 ± 0.041 |
| GGGTACGTTC | 1.01 ± 0.023 |
| GTTTCGGGCT | 1.01 ± 0.012 |
| GATTGTGTG | 0.998 ± 0.03 |
| CGTTTATTCA | 1.036 ± 0.0079 |
| CAGGTATGT | 0.991 ± 0.015 |
| AATCCGAGGA | 1.05 ± 0.054 |
| CTTCTACGAT | 0.998 ± 0.013 |
| CAAGTCAAGG | 1.007 ± 0.0062 |
| AGGTGTGGCT | 1 ± 0.048 |
| TTCCAGGTGG | 1.42 ± 0.14 |
| TATTGGGCCC | 0.9954 ± 0.0019 |
| GATGAGAGGA | 1.03 ± 0.05 |
| TATTGTGATA | 0.991 ± 0.039 |
| TGAGTATAGT | 1.01 ± 0.035 |
| ATTTTTACCT | 1.08 ± 0.19 |
| ACGTTTGGAT | 1.02 ± 0.027 |

| Sequence | switch fluorescence ratio |
| --- | --- |
| ATGAGGTTAG | 0.947 ± 0.065 |
| AGAACCACCG | 1.12 ± 0.032 |
| TGATGGTCGA | 1.02 ± 0.032 |
| ATGCAGTATG | 0.967 ± 0.025 |
| GGTCTAGAGA | 0.98 ± 0.033 |
| TATAGTGAGG | 1.0603 ± 0.001 |
| ATAGAGATGT | 0.978 ± 0.018 |
| GGGTCTTGTA | 0.99 ± 0.016 |
| TTCAGCTTGG | 0.99 ± 0.015 |
| TTTTGCGGGA | 1.01 ± 0.057 |
| AATCATAGTA | 1.011 ± 0.0089 |
| GGGCTGACAG | 1.035 ± 0.0012 |
| TCCATTTGGA | 1.02 ± 0.052 |
| AATTTACGTG | 1.06 ± 0.011 |
| CGTGGGGGTG | 0.993 ± 0.029 |
| ATTCGGGTGT | 1.151 ± 0.0081 |
| CAGCACGATA | 1.1615 ± 0.00014 |
| CTGATTAGGA | 0.989 ± 0.017 |
| GAAAGCCTTT | 1 ± 0.012 |
